Source: patent EP2574667A1, “Enzyme variants” (Technische Universität Graz, priority 2011, dated 2013)

How the values were obtained:
O=C(O)C(=O)Cc1ccccc1 [1] = assay: Steady state kinetics by O2 depletion, HMS variant V223F Y359A; format: biochemical, Streptomyces coelicolor A3 (2); conditions: other: Table 3, apparent, air saturation, pH 7.5, 25.0 °C
Description: (§1) Dioxygen consumption was continuously monitored using a micro-optode O2 sensor (Microtox TX3-AOT, Presens GmbH,Regensburg, Germany). Assays were generally performed at 25°C in air saturated 20 mM Tris/HCl buffer, pH 7.5 with enzyme concentrations of approx. 20 µM. To start the reaction, substrate aliquots were added from 5 mM stock solutions of the respective substrate to the desired end-concentration in a total volume of 500 µL. Initial rates were determined by linear regression analysis using the initial, linear part of the O2 depletion curve. O2 consumption rates from blanks that contained substrate in the absence of enzyme were subtracted as necessary. Specific activities were obtained by relating measured rates of O2 depletion to the protein derived Fe(II) content in the assay.
(§2) Kinetic analysis was performed via measuring O2 depletion. Kinetic parameters are apparent, as measurements were performed at air saturation. Product analysis was performed via HPLC (method is outlined in Appendix B) and confirmed via GC-MS. It could be shown that the enzyme converts phenylpyruvate analogues as a whole cell system, when a substrate analogue (e.g. p-F-phenylpyruvate) was added to cultures of E.coli BL21 cells overexpressing HMS variant S221M_V223M_Y359A. The overexpression was induced with IPTG as described in Material and Methods. […]

O=C(O)C(=O)Cc1ccccc1 [2] = assay: Steady state kinetics by O2 depletion, HMS variant V223W; format: biochemical, Streptomyces coelicolor A3 (2); conditions: other: Table 3, apparent, air saturation, pH 7.5, 25.0 °C
Description: as §1, §2

O=C(O)C(=O)Cc1ccccc1 [3] = assay: Steady state kinetics by O2 depletion, HMS variant Y359A; format: biochemical, Streptomyces coelicolor A3 (2); conditions: other: Table 3, apparent, air saturation, pH 7.5, 25.0 °C
Description: as §1, §2

O=C(O)C(=O)Cc1ccccc1 [4] = assay: Steady state kinetics by O2 depletion, HMS variant S221M; format: biochemical, Streptomyces coelicolor A3 (2); conditions: other: Table 3, apparent, air saturation, pH 7.5, 25.0 °C
Description: as §1, §2

[5] = biological target: T1, 4-hydroxymandelate synthase (Hms, HMS) from Streptomyces coelicolor A3 (2), wild type, SEQ ID No. 1 (Streptomyces coelicolor, UniProt Q9Z4X7); conditions: Table 2; apparent, air saturation (260 µM dioxygen), Tris buffer 20 mM pH 7.5, 25°C
T1 sequence (Q9Z4X7 1-371): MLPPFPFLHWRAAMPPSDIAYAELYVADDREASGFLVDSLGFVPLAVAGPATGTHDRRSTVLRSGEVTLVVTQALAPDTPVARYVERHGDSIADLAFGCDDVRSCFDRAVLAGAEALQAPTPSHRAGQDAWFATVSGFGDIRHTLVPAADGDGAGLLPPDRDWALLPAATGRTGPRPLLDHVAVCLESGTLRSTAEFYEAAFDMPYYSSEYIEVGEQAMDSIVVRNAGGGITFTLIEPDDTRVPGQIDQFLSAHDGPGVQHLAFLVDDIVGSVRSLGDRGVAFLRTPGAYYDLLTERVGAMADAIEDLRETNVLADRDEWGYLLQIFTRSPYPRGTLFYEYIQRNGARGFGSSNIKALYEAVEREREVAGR
Description: (§3) The reactivity of HMS towards a range of aromatic oxo-acids was assessed, whereby the impact of substituents in the para-position of the aromatic ring regarding electronic structure and size was probed. […] Where activities were high enough to allow a steady state kinetic analysis, specific activities (kcat) and Michaelis Menten constants (Km) were determined (the assays were performed at air saturation (=260µM dioxygen concentration, therefore all kinetic constants are apparent)). […] Reactions were performed in Tris buffer (20 mM, pH 7.5), at 25°C at air saturation.

O=C(O)C(=O)Cc1ccccc1 [6] = assay: Steady state kinetics by O2 depletion, HMS variant S221M_Y359A; format: biochemical, Streptomyces coelicolor A3 (2); conditions: other: Table 3, apparent, air saturation, pH 7.5, 25.0 °C
Description: as §1, §2

O=C(O)C(=O)Cc1ccccc1 [7] = assay: Steady state kinetics by O2 depletion, HMS variant V223M; format: biochemical, Streptomyces coelicolor A3 (2); conditions: other: Table 3, apparent, air saturation, pH 7.5, 25.0 °C
Description: as §1, §2

O=C(O)C(=O)Cc1ccccc1 [8] = assay: Steady state kinetics by O2 depletion, HMS variant V223F; format: biochemical, Streptomyces coelicolor A3 (2); conditions: other: Table 3, apparent, air saturation, pH 7.5, 25.0 °C
Description: as §1, §2

O=C(O)C(=O)Cc1ccccc1 [9] = assay: Steady state kinetics by O2 depletion, HMS variant I236F; format: biochemical, Streptomyces coelicolor A3 (2); conditions: other: Table 3, apparent, air saturation, pH 7.5, 25.0 °C
Description: as §1, §2

[10] = substrate: O=C(O)C(=O)Cc1ccc(F)cc1; assay: purified protein, by the assay type; conditions: other: Table 2, apparent, air saturation (260 µM dioxygen), Tris buffer 20 mM pH 7.5, 25°C
Description: as §3

[11] = substrate: O=C(O)C(=O)Cc1ccccc1; assay: purified protein, by the assay type; conditions: other: Table 3; apparent, air saturation, O2 depletion; pH 7.5; 25.0 °C
[12] = substrate: Cc1ccc(CC(=O)C(=O)O)cc1; assay: purified protein, by the assay type; conditions: other: Table 2, apparent, air saturation (260 µM dioxygen), Tris buffer 20 mM pH 7.5, 25°C
Description: as §3

[13] = substrate: COc1ccc(CC(=O)C(=O)O)cc1; assay: purified protein, by the assay type; conditions: other: Table 2, apparent, air saturation (260 µM dioxygen), Tris buffer 20 mM pH 7.5, 25°C
Description: as §3

[14] = substrate: O=C(O)C(=O)Cc1ccc([N+](=O)[O-])cc1; assay: purified protein, by the assay type; conditions: other: Table 2, apparent, air saturation (260 µM dioxygen), Tris buffer 20 mM pH 7.5, 25°C
Description: as §3

4-hydroxymandelate synthase (HMS) from Streptomyces coelicolor A3 (2), variant V223F Y359A (V223F_Y359A), SEQ ID No. 7 (Streptomyces coelicolor A3(2); V223F/Y359A)
Km (O=C(O)C(=O)Cc1ccccc1 [1]): 1000 µM | kcat (O=C(O)C(=O)Cc1ccccc1 [1]): 2.1 s⁻¹

4-hydroxymandelate synthase (HMS) from Streptomyces coelicolor A3 (2), variant V223W, SEQ ID No. 3 (Streptomyces coelicolor A3(2); V223W)
Km (O=C(O)C(=O)Cc1ccccc1 [2]): 230 µM | kcat (O=C(O)C(=O)Cc1ccccc1 [2]): 0.5 s⁻¹

4-hydroxymandelate synthase (HMS) from Streptomyces coelicolor A3 (2), variant Y359A, SEQ ID No. 5 (Streptomyces coelicolor A3(2); Y359A)
Km (O=C(O)C(=O)Cc1ccccc1 [3]): 270 µM | kcat (O=C(O)C(=O)Cc1ccccc1 [3]): 4.8 s⁻¹

4-hydroxymandelate synthase (HMS) from Streptomyces coelicolor A3 (2), variant S221M, SEQ ID No. 6 (Streptomyces coelicolor A3(2); S221M)
Km (O=C(O)C(=O)Cc1ccccc1 [4]): 330 µM | kcat (O=C(O)C(=O)Cc1ccccc1 [4]): 1.9 s⁻¹

COc1ccc(CC(=O)C(=O)[O-])cc1.[Na+]
kcat [5]: 0.96 ± 0.12 s⁻¹

4-hydroxymandelate synthase (HMS) from Streptomyces coelicolor A3 (2), variant S221M_Y359A, SEQ ID No. 8 (Streptomyces coelicolor A3(2); S221M/Y359A)
Km (O=C(O)C(=O)Cc1ccccc1 [6]): 240 µM | kcat (O=C(O)C(=O)Cc1ccccc1 [6]): 1.1 s⁻¹

4-hydroxymandelate synthase (HMS) from Streptomyces coelicolor A3 (2), variant V223M, SEQ ID No. 4 (Streptomyces coelicolor A3(2); V223M)
Km (O=C(O)C(=O)Cc1ccccc1 [7]): 230 µM | kcat (O=C(O)C(=O)Cc1ccccc1 [7]): 1.9 s⁻¹

4-hydroxymandelate synthase (HMS) from Streptomyces coelicolor A3 (2), variant V223F, SEQ ID No. 2 (Streptomyces coelicolor A3(2); V223F)
Km (O=C(O)C(=O)Cc1ccccc1 [8]): 27 µM | kcat (O=C(O)C(=O)Cc1ccccc1 [8]): 1.1 s⁻¹

4-hydroxymandelate synthase (HMS) from Streptomyces coelicolor A3 (2), variant I236F (Streptomyces coelicolor A3(2); I236F)
Km (O=C(O)C(=O)Cc1ccccc1 [9]): 2000 µM | kcat (O=C(O)C(=O)Cc1ccccc1 [9]): 0.9 s⁻¹

B1: 4-hydroxymandelate synthase (Hms, HMS) from Streptomyces coelicolor A3 (2), wild type, SEQ ID No. 1 (Streptomyces coelicolor A3(2)) (protein)
chain: T1 sequence (Q9Z4X7 1-371)
kcat [10]: 0.077 ± 0.004 s⁻¹ | Km [11]: 350 µM | kcat [11]: 0.9 s⁻¹ | kcat [12]: 0.13 ± 0.02 s⁻¹ | Km [13]: 160 ± 70 µM | kcat [14]: 0.035 ± 0.007 s⁻¹
